Results taken from paper PMC10547724, “Structural insights into the conformational changes of BTR1/SLC4A11 in complex with PIP2” (Nature Communications, 2023).
Substitutions are numbered along the chain they refer to. Names may count otherwise.

B1: BTR1 (SLC4A11), full-length human, wild type (natural protein, UniProt Q8NBS3-1 1-891, looked up)
chain: MSQVGGRGDRCTQEVQGLVHGAGDLSASLAENSPTMSQNGYFEDSSYYKCDTDDTFEAREEILGDEAFDTANSSIVSGESIRFFVNVNLEMQATNTENEATSGGCVLLHTSRKYLKLKNFKEEIRAHRDLDGFLAQASIVLNETATSLDNVLRTMLRRFARDPDNNEPNCNLDLLMAMLFTDAGAPMRGKVHLLSDTIQGVTATVTGVRYQQSWLCIICTMKALQKRHVCISRLVRPQNWGENSCEVRFVILVLAPPKMKSTKTAMEVARTFATMFSDIAFRQKLLETRTEEEFKEALVHQRQLLTMVSHGPVAPRTKERSTVSLPAHRHPEPPKCKDFVPFGKGIREDIARRFPLYPLDFTDGIIGKNKAVGKYITTTLFLYFACLLPTIAFGSLNDENTDGAIDVQKTIAGQSIGGLLYALFSGQPLVILLTTAPLALYIQVIRVICDDYDLDFNSFYAWTGLWNSFFLALYAFFNLSLVMSLFKRSTEEIIALFISITFVLDAVKGTVKIFWKYYYGHYLDDYHTKRTSSLVSLSGLGASLNASLHTALNASFLASPTELPSATHSGQATAVLSLLIMLGTLWLGYTLYQFKKSPYLHPCVREILSDCALPIAVLAFSLISSHGFREIEMSKFRYNPSESPFAMAQIQSLSLRAVSGAMGLGFLLSMLFFIEQNLVAALVNAPENRLVKGTAYHWDLLLLAIINTGLSLFGLPWIHAAYPHSPLHVRALALVEERVENGHIYDTIVNVKETRLTSLGASVLVGLSLLLLPVPLQWIPKPVLYGLFLYIALTSLDGNQLVQRVALLLKEQTAYPPTHYIRRVPQRKIHYFTGLQVLQLLLLCAFGMSSLPYMKMIFPLIMIAMIPIRYILLPRIIEAKYLDVMDAEHRP
notes: human BTR1 (SLC4A11), full length, residues 1-891 (NTD 1-307, TMD 336-891), amplified from human HEK293 cDNA; GFP and His tag removed with TEV protease before gel filtration; Residues 1-103, 308-335 and 888-891 were not built in the model; also called NaBC1; bicarbonate transporter-related protein-1; source: HEK293F cells, baculovirus (BacMam) infection, purified (Ni-NTA, TEV cleavage, gel …)
B2: BTR1 (SLC4A11) R125H, full-length human, pathogenic mutant (natural protein, UniProt Q8NBS3-1 1-891, looked up)
chain: B1 chain with R125H
notes: human BTR1 (SLC4A11), full length, with the disease-associated mutation R125H made in the PBM-SLC4A11 plasmid; GFP and His tag removed with TEV protease before gel filtration; also called BTR1-R125H; BTR1_(IF/R125H); source: HEK293F cells, baculovirus (BacMam) infection, purified (Ni-NTA, TEV cleavage, gel filtration) in GDN micelles; not shown: GFP, C-terminal, cleaved; His8, C-terminal, cleaved

Molecular target: the molecule itself
Assay: cryo-EM structure; single-particle cryo-EM of protein purified in GDN micelles (150 mM NaCl, 20 mM HEPES pH 7.4); wild type apo or with NH4Cl (outward-facing), R125H mutant (inward-facing; pH not named for it)

Protein	stoichiometry N
B1	2
B2	2
